Results taken from patent US20220177587A1, “METHODS AND USES OF VARIANT CD80 FUSION PROTEINS AND RELATED CONSTRUCTS” (Alpine Immune Sciences, Inc., priority 2018, published 2022).

Columns and labels:
[1] = target: human CTLA-4 (human) (UniProt P16410); assay: flow cytometry, CHO cells expressing huCTLA4, vs WT CD80 ECD-Fc (R&D)
[2] = target: human PD-L1 (human) (UniProt Q9NZQ7); assay: flow cytometry, CHO cells expressing huPD-L1
[3] = target: CD28 (human) (UniProt P10747); assay: flow cytometry, Jurkat/IL2 reporter cells (CD28)
[4] = target: human PD-L1 (human) (UniProt Q9NZQ7); assay: flow cytometry, CHO cells expressing huPD-L1, vs WT CD80 ECD-Fc (R&D)
[5] = target: CD28 (human) (UniProt P10747); assay: flow cytometry, Jurkat/IL2 reporter cells (CD28), vs WT CD80 ECD-Fc (R&D)
[6] = target: human CTLA-4 (human) (UniProt P16410); assay: flow cytometry, CHO cells expressing huCTLA4
[7] = target: human PD-L1 (human) (UniProt Q9NZQ7); assay: flow cytometry, MFI on PD-L1 over MFI on CD28
[8] = target: CD28 (human) (UniProt P10747); assay: flow cytometry, Jurkat cells (CD28)
[9] = target: human CTLA-4 (human) (UniProt P16410); assay: flow cytometry, CHO cells expressing CTLA4
[10] = target: human PD-L1 (human) (UniProt Q9NZQ7); assay: flow cytometry, CHO cells expressing PD-L1

human PD-L1 (human), sequence (Q9NZQ7 19-290): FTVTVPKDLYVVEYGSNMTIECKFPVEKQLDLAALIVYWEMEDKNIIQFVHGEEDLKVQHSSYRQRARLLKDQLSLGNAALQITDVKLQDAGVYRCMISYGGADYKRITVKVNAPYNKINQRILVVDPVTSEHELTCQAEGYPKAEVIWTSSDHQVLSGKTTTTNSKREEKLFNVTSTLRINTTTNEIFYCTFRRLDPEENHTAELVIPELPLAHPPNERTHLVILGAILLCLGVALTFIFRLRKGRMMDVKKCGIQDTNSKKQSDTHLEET
human CTLA-4 (human), sequence (P16410 36-223): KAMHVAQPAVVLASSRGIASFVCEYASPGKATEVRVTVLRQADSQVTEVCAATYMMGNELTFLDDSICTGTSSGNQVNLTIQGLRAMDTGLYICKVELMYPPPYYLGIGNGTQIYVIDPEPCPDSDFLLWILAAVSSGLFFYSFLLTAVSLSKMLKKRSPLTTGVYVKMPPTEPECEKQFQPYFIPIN

Binder	Fold change to WT CD80 [1] [fold]	MFI at 33.3 nM [2] [MFI]	MFI at 33.3 nM [3] [MFI]	Fold change to WT CD80 [4] [fold]	Fold change to WT CD80 [5] [fold]	MFI at 33.3 nM [6] [MFI]	Ratio of PDL1:CD28 [7]	Fold change to WT CD80 [8] [fold]	MFI at 33.3 nM [8] [MFI]	Fold change to WT CD80 [9] [fold]	MFI at 33.3 nM [9] [MFI]	Fold change to WT CD80 [10] [fold]	MFI at 33.3 nM [10] [MFI]
variant CD80 IgV-Fc E35D/T41S/M43V/M47I/L70M/A71G (Fc fusion) VIHVTKEVKEVATLSCGHNVSVEELAQTRIYWQKDKKMVLSMVSGDINIWPEYKNRTIFDITNNLSIVIMGLRPSDEGTYECVVLKYEKDAFKREHLAEVTLSVKAD	1.59	13000	2700	1.09	0.15	249000	–	–	–	–	–	–	–
variant CD80 IgV-Fc E35D/D46E/M47V/N63D/L85Q (Fc fusion) VIHVTKEVKEVATLSCGHNVSVEELAQTRIYWQKDKKMVLTMMSGEVNIWPEYKNRTIFDITDNLSIVILALRPSDEGTYECVVQKYEKDAFKREHLAEVTLSVKAD	1.74	69800	1330	5.88	0.07	274000	–	–	–	–	–	–	–
variant CD80 IgV-Fc E35D/D46E/M47V/V68M/D90G/K93E (Fc fusion) VIHVTKEVKEVATLSCGHNVSVEELAQTRIYWQKDKKMVLTMMSGEVNIWPEYKNRTIFDITNNLSIMILALRPSDEGTYECVVLKYEKGAFEREHLAEVTLSVKAD	1.74	71900	27100	6.06	1.5	273000	–	–	–	–	–	–	–
variant CD80 IgV-Fc E35D/M47L/A71G/L85M/F92Y (Fc fusion) VIHVTKEVKEVATLSCGHNVSVEELAQTRIYWQKDKKMVLTMMSGDLNIWPEYKNRTIFDITNNLSIVILGLRPSDEGTYECVVMKYEKDAYKREHLAEVTLSVKAD	1.37	46700	2460	3.93	0.14	216000	–	–	–	–	–	–	–
CD80 E35D/M47L/Y53F/V68M/A71G/K93R/E95V IgV-Fc (Fc fusion) VIHVTKEVKEVATLSCGHNVSVEELAQTRIYWQKDKKMVLTMMSGDLNIWPEFKNRTIFDITNNLSIMILGLRPSDEGTYECVVLKYEKDAFRRVHLAEVTLSVKAD	–	–	–	–	–	–	65.3	12.2	383	9.1	16000	486	25000
CD80 E35D/M47V/N48K/V68M/A71G/L85M IgV-Fc (Fc fusion) VIHVTKEVKEVATLSCGHNVSVEELAQTRIYWQKDKKMVLTMMSGDVKIWPEYKNRTIFDITNNLSIMILGLRPSDEGTYECVVMKYEKDAFKREHLAEVTLSVKAD	–	–	–	–	–	–	75.4	9.6	302	9.5	16600	442	22800
CD80 E35D/M47V/N48K/V68M/L85M IgV-Fc (Fc fusion) VIHVTKEVKEVATLSCGHNVSVEELAQTRIYWQKDKKMVLTMMSGDVKIWPEYKNRTIFDITNNLSIMILALRPSDEGTYECVVMKYEKDAFKREHLAEVTLSVKAD	–	–	–	–	–	–	31.1	7.8	245	8.9	15600	148	7620
CD80 E35D/T41S/D46E/M47I/V68M/K93R/E95V IgV-Fc (Fc fusion) VIHVTKEVKEVATLSCGHNVSVEELAQTRIYWQKDKKMVLSMMSGEINIWPEYKNRTIFDITNNLSIMILALRPSDEGTYECVVLKYEKDAFRRVHLAEVTLSVKAD	–	–	–	–	–	–	31.1	15.2	476	10.5	18400	287	14800
CD80 H18Y/E35D/M47V/V68M/L85M IgV-Fc (Fc fusion) VIHVTKEVKEVATLSCGYNVSVEELAQTRIYWQKDKKMVLTMMSGDVNIWPEYKNRTIFDITNNLSIMILALRPSDEGTYECVVMKYEKDAFKREHLAEVTLSVKAD	–	–	–	–	–	–	45	11.9	373	10.5	18400	326	16800
CD80 H18Y/E35D/V68M/T79M/L85M IgV-Fc (Fc fusion) VIHVTKEVKEVATLSCGYNVSVEELAQTRIYWQKDKKMVLTMMSGDMNIWPEYKNRTIFDITNNLSIMILALRPSDEGMYECVVMKYEKDAFKREHLAEVTLSVKAD	–	–	–	–	–	–	14.3	33.2	1040	9.3	16300	290	14900
